One assay concerns the target CCM1-K2. The experiment in a line: ITC; GST-tagged fragments from PTB domains and HIS-tagged NPXY motifs, purified; Table 5 heads CCM1-K8 and CCM1-K2 as 'Ligand'; conditions not stated (as in ref. 20).
The target of assay [1] is CCM1-K8. The assay is described as above.
The target in assay [2] is CCM1-K8. Nature of the assay: BLI; GST-tagged fragments from PTB domains and HIS-tagged NPXY motifs, purified; Table 5 heads CCM1-K8 as 'Ligand'; who was immobilised and the conditions are not stated (as in ref. 20).

Turning to “CCM2-EX6 (from UniProt Q9BSQ5 1-444) (domain or fragment)”, the results for the dissociation constant Kd in the assay with CCM1-K2, with CCM1-K8 [1] and in the assay with CCM1-K8 [2] were 6.45 µM, 1.99 µM and 4.06 µM, respectively.

(Values after paper PMC6825194.)
